Legend:
Assay in all cases: cell-based or functional assay
HLA-DRB1*0701 = HLA-DRB1*0701 (human)
HLA-DRB1*0401 = HLA-DRB1*0401 (human)
HLA-DRB1*0301 = HLA-DRB1*0301 (human)
HLA-DRB1*0101 = HLA-DRB1*0101 (human)

Responding patients (%) (HLA-DRB1*0701): 14.3%
Responding patients (n = 38) (HLA-DRB1*0701): 1 patients
Responding patients (%) (HLA-DRB1*0401): 28.6%
Responding patients (n = 38) (HLA-DRB1*0401): 2 patients
Responding patients (%) (HLA-DRB1*0301): 10%
Responding patients (n = 38) (HLA-DRB1*0301): 1 patients
Responding patients (%) (HLA-DRB1*0101): 28.6%
Responding patients (n = 38) (HLA-DRB1*0101): 2 patients
Binder: TIRLTAADHRQLQLS [NY-ESO-1 peptide, amino acids 134-148 (TIRLTAADHRQLQLS; SEQ ID NO: 2)]

From patent publication US20080187548A1 (LUDWIG INSTITUTE FOR CANCER RESEARCH, published 2008)
